Residue numbers refer to the chain shown, from its start. In names and notes the source's numbering stands.
B1: I283T-N285P-N287T-Q290E-S322T-N388M-K394R-H419A-C430A-L432F-L434W-S436N-dG462 (protein)
chain: MFLKSLREQINLLKRQGDLRIINRPVDSYLEAAAIIRRSTETKAPVPLMTNIKGYPGCSIVGGLAALSSNPEYPLSRVAMSLGLSTTASAQSIVQYLIDGLKKTPYLPVEIDSNSAPCKQNILRGEDASLAHFPIPQVHQHDGNRYVNTWGVFIVESPDGQWCNWSIQRVQYLNDRQMIALVFPSQHISDIWEEWVKIGKPMPYALVQGCEPIVPYIAGLPLLERNVNEAEYIGALYGKGIEVVKCETHDLRVPASSEVVIEGYFAITREGVEGPFGEFAGYTPPETSLEPILSITAISWQDDPIWPVVAEGKPVDEYHTCTGIGDAAAIQNVLLTANLPVSFVWVPLYSACHLMIVSINRHWRQTHPDLTSEQLTKKVGDVIHQTRMSIKLPRIVVLDDDVDPADTESLLWALATRIAPERKRYFYESAIFPWLNCYSEEERHNRKGKRVIIDALLPENHGAISSFDYAYPDDIKQRVLMHWETDFSHD
B2: I283T-N285P-N287T-Q290E-S322T-N388M-K394R-C430A-I431A-L432F-L434W-S436N-dG462 (protein)
chain: B1 chain with A419H, I431A
B3: N332H-N388M-K394R-C430N-L432F-L434W-S436N (protein)
chain: B1 chain with T283I, P285N, T287N, E290Q, T322S, N332H, A419H, A430N
B4: I283T-N285P-N287T-Q290E-S322T-N388M-K394R-C430A-I431N-L432F-L434W-S436N-dG462 (protein)
chain: B1 chain with A419H, I431N
B5: I283T-N285P-N287T-Q290E-S322T-N388M-K394R-C430A-I431T-L432F-L434W-S436N-dG462 (protein)
chain: B1 chain with A419H, I431T
B6: I283T-N285P-N287T-Q290E-S322T-N388M-K394R-C430S-L432F-L434W-S436N-dG462 (protein)
chain: B1 chain with A419H, A430S
B7: I283T-N285P-N287T-Q290E-S322T-N388M-K394R-C430A-L432F-L434W-S436N-Y438M-dG462 (protein)
chain: B1 chain with A419H, Y438M
B8: I283T-N285P-N287T-Q290E-S322T-N388M-K394R-i421aS-C430A-L432F-L434W-S436N-dG462 (protein)
chain: B1 chain with A419H
B9: D27N-I283T-N285P-N287T-Q290E-S322T-N388M-K394R-C430A-L432F-L434W-S436N-G448T-dG462 (protein)
chain: B1 chain with D27N, A419H, G448T
B10: I283T-N285P-N287T-Q290E-S322T-N388M-K394R-C430A-L432F-L434W-S436N-C437L-dG462 (protein)
chain: B1 chain with A419H, C437L
B11: I283T-N285P-N287T-Q290E-S322T-N388M-K394R-E421F-C430A-L432F-L434W-S436N-dG462 (protein)
chain: B1 chain with A419H, E421F
B12: I283T-N285P-N287T-Q290E-S322T-N388M-K394R-S429V-C430A-L432F-L434W-S436N-dG462 (protein)
chain: B1 chain with A419H, S429V
B13: I283T-N285P-N287T-Q290E-S322T-N388M-K394R-i421aP-C430A-L432F-L434W-S436N-dG462 (protein)
chain: B1 chain with A419H
B14: I283T-N285P-N287T-Q290E-S322T-N388M-K394R-i424aA-C430A-L432F-L434W-S436N-dG462 (protein)
chain: B1 chain with A419H
B15: I283T-N285P-N287T-Q290E-S322T-N388M-K394R-C430A-I431K-L432F-L434W-S436N-dG462 (protein)
chain: B1 chain with A419H, I431K
B16: I283T-N285P-N287T-Q290E-S322T-N388M-K394R-C430A-L432F-L434W-S436N-S439P-dG462 (protein)
chain: B1 chain with A419H, S439P
B17: I283T-N285P-N287T-Q290E-S322T-N388M-K394R-i421aE-C430A-L432F-L434W-S436N-dG462 (protein)
chain: B1 chain with A419H
B18: I283T-N285P-N287T-Q290E-S322T-N388M-K394R-C430A-L432F-L434W-S436N-Y438W-dG462 (protein)
chain: B1 chain with A419H, Y438W
B19: I283T-N285P-N287T-Q290E-S322T-N388M-K394R-C430A-L432F-L434W-S436N-C437M-dG462 (protein)
chain: B1 chain with A419H, C437M
B20: I283T-N285P-N287T-Q290E-S322T-N388M-K394R-C430A-I431P-L432F-L434W-S436N-dG462 (protein)
chain: B1 chain with A419H, I431P
B21: S322T-N388M-K394R-C430N-L432F-L434W-S436N (protein)
chain: B1 chain with T283I, P285N, T287N, E290Q, A419H, A430N
B22: I283T-N285P-N287T-Q290E-S322T-N388M-K394R-i424aW-C430A-L432F-L434W-S436N-dG462 (protein)
chain: B1 chain with A419H
B23: I283T-N285P-N287T-Q290E-S322T-N388M-K394R-i421aR-C430A-L432F-L434W-S436N-dG462 (protein)
chain: B1 chain with A419H
B24: I283T-N285P-N287T-Q290E-S322T-N388M-K394R-C430A-L432F-L434W-S436N-K447T-dG462 (protein)
chain: B1 chain with A419H, K447T
B25: I283T-N285P-N287T-Q290E-S322T-N388M-K394R-C430A-I431C-L432F-L434W-S436N-dG462 (protein)
chain: B1 chain with A419H, I431C
B26: I283T-N285P-N287T-Q290E-S322T-N388M-K394R-i421aI-C430A-L432F-L434W-S436N-dG462 (protein)
chain: B1 chain with A419H
B27: I283T-N285P-N287T-Q290E-S322T-N388M-K394R-i421aT-C430A-L432F-L434W-S436N-dG462 (protein)
chain: B1 chain with A419H
B28: I283T-N285P-N287T-Q290E-S322T-N388M-K394R-E421L-C430A-L432F-L434W-S436N-dG462 (protein)
chain: B1 chain with A419H, E421L
B29: I283T-N285P-N287T-Q290E-S322T-N388M-K394R-i421aD-C430A-L432F-L434W-S436N-dG462 (protein)
chain: B1 chain with A419H
B30: I283T-N285P-N287T-Q290E-S322T-N388M-K394R-C430A-L432F-L434W-S436N-G448C-dG462 (protein)
chain: B1 chain with A419H, G448C
B31: I283T-N285P-N287T-Q290E-S322T-N388M-K394R-C430A-L432F-L434W-S436N-C437I-dG462 (protein)
chain: B1 chain with A419H, C437I
B32: I283T-N285P-N287T-Q290E-S322T-N388M-K394R-C430A-L432F-L434W-S436N-C437T-dG462 (protein)
chain: B1 chain with A419H, C437T
B33: P284E-N388M-K394R-C430N-L432F-L434W-S436N (protein)
chain: B1 chain with T283I, P284E, P285N, T287N, E290Q, T322S, A419H, A430N

Test system: 3-methylcrotonic acid
Format: biochemical, Yersinia frederiksenii
Set-up: key: “+” representing a low increase in activity; “++++” representing a high increase in activity

| Molecule | Activity relative to WT |
| --- | --- |
| B1 | ++++ |
| B2 | ++++ |
| B3 | + |
| B4 | ++++ |
| B5 | ++++ |
| B6 | ++++ |
| B7 | ++++ |
| B8 | ++++ |
| B9 | ++++ |
| B10 | ++++ |
| B11 | ++++ |
| B12 | ++++ |
| B13 | ++++ |
| B14 | ++++ |
| B15 | ++++ |
| B16 | ++++ |
| B17 | ++++ |

| Molecule | Activity relative to WT |
| --- | --- |
| B18 | ++++ |
| B19 | ++++ |
| B20 | ++++ |
| B21 | + |
| B22 | ++++ |
| B23 | ++++ |
| B24 | ++++ |
| B25 | ++++ |
| B26 | ++++ |
| B27 | ++++ |
| B28 | ++++ |
| B29 | ++++ |
| B30 | ++++ |
| B31 | ++++ |
| B32 | ++++ |
| B33 | + |

Source: patent publication US20250327097A1, “ORGANISMS PRODUCING LESS CROTONIC ACID” (Global Bioenergies, priority 2021, published 2025)
